± gives the uncertainty stated by the source.
Experiment: self-splicing fitness, log relative to wild type (ln ratio); higher = more splicing; Tetrahymena group I intron in knt gene, E. coli kanamycin selection, DiMSum; sequences stand for … in CUCUCU…GGAGGGAAAAGUUAUCAGGCAUGCACCUGGUAGCUAGUCUUUAAACCAAUAGAUUGCAUCGGUUUAAAAGGCAAGACCGUCAAAUUGCGGGAAAGGGGUCAACAGCCGUUCAGUACCAAGUCUCAGGGGAAACUUUGAGAUGGCCUUGCAAAGGGUAUGGUAAUAAGCUGACGGACAUGGUCCUAACCACGCAGCCAAGUCCUAAGUCAACAGAUCUUCUGUUGAUAUGGAUGCAGUUCACAGACUAAAUGUCGGUCGGGGAAGAUGUAUUCUUCUCAUAAGAUAUAGUCGGACCUCUCCUUAAUGGGAGCUAGCGGAUGAAGUGAUGCAACACUGGAGCCGCUGGGAACUAAUUUGUAUGCGAAAGUAUAUUGAUUAGUUUUGGAGUACUCGUGGUCG
Method in brief: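 DiMSum derived fitness as the error-weighted combination of fold changes across replicates, kanamycin versus no kanamycin, normalised to wild type. E. coli BL21(DE3) held the library, which randomised all eight P1ex-region intron nucleotides within the knt kanamycin-resistance gene on pET-22b(+). Six replicate transformations grew overnight at 37°C or 30°C on LB agar with or without 25 μg/mL kanamycin, also containing 100 μg/mL carbenicillin, 50 μM IPTG and 0.2% rhamnose, and pooled colonies were amplicon-sequenced on an Illumina HiSeq 2500.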

Sequence	self-splicing fitness (ln) (30 °C)	self-splicing fitness (ln) (37 °C)
GAAAAGCAAUAUUACGCGUU	-2.98 ± 0.13	-1.18 ± 0.12
GAAAAGCAAUAUUACGCUAC	-2.67 ± 0.27	-2.37 ± 0.29
GAAAAGCAAUAUUACGCUAG	-1.8 ± 0.076	-1.57 ± 0.099
GAAAAGCAAUAUUACGCUGA	-1.91 ± 0.24	-1.65 ± 0.21
GAAAAGCAAUAUUACGCUGC	-3.12 ± 0.24	-1.61 ± 0.39
GAAAAGCAAUAUUACGGAAA	-2.88 ± 0.27	-1.55 ± 0.16
GAAAAGCAAUAUUACGGAGA	-3.59 ± 0.26	-2.19 ± 0.21
GAAAAGCAAUAUUACGGCUC	-0.401 ± 0.085	0.342 ± 0.12
GAAAAGCAAUAUUACGGUAU	-2.38 ± 0.11	-1.69 ± 0.14
GAAAAGCAAUAUUACGGUCC	-1.8 ± 0.23	-0.588 ± 0.17
GAAAAGCAAUAUUACGUCUA	-0.367 ± 0.053	0.0921 ± 0.066
GAAAAGCAAUAUUACGUGAU	-2.38 ± 0.087	-1.9 ± 0.11
GAAAAGCAAUAUUACGUGCU	-1.8 ± 0.098	-0.978 ± 0.1
GAAAAGCAAUAUUACGUUUA	-1.32 ± 0.11	-0.963 ± 0.1
GAACAGCAAUAUUACGAACU	-0.795 ± 0.07	0.239 ± 0.09
GAACAGCAAUAUUACGACGG	-3.4 ± 0.19	-1.81 ± 0.18
GAACAGCAAUAUUACGACGU	-0.688 ± 0.064	0.167 ± 0.077
GAACAGCAAUAUUACGAGCA	-1.01 ± 0.1	-0.521 ± 0.1
GAACAGCAAUAUUACGAGUC	-2.08 ± 0.09	-1.45 ± 0.094
GAACAGCAAUAUUACGAUGU	-1.05 ± 0.043	-0.336 ± 0.06
GAACAGCAAUAUUACGCAGG	-3.74 ± 0.14	-2.7 ± 0.11
GAACAGCAAUAUUACGCCCU	-1.69 ± 0.42	0.579 ± 0.37
GAACAGCAAUAUUACGCUGG	-1.98 ± 0.28	-1.3 ± 0.2
GAACAGCAAUAUUACGGCGC	-0.147 ± 0.065	-0.195 ± 0.09

Sequence	self-splicing fitness (ln) (30 °C)	self-splicing fitness (ln) (37 °C)
GAACAGCAAUAUUACGGCGG	-3.13 ± 0.16	-0.604 ± 0.12
GAACAGCAAUAUUACGGUAC	-1.37 ± 0.064	-0.573 ± 0.072
GAACAGCAAUAUUACGGUCC	-4.14 ± 0.25	-0.683 ± 0.13
GAACAGCAAUAUUACGGUGC	-1.38 ± 0.074	-1.22 ± 0.086
GAACAGCAAUAUUACGUACU	-1.26 ± 0.077	-0.125 ± 0.1
GAACAGCAAUAUUACGUAGG	-2.12 ± 0.057	-0.569 ± 0.066
GAACAGCAAUAUUACGUUCU	-3.36 ± 0.13	-3.63 ± 0.2
GAAGAGCAAUAUUACGAAAG	-4.13 ± 0.31	-2.41 ± 0.18
GAAGAGCAAUAUUACGAACG	–	-2.41 ± 0.33
GAAGAGCAAUAUUACGAAGC	-3.81 ± 0.46	-0.865 ± 0.3
GAAGAGCAAUAUUACGAAUC	-3.48 ± 0.22	-1.91 ± 0.15
GAAGAGCAAUAUUACGACAC	-1.1 ± 0.31	0.351 ± 0.33
GAAGAGCAAUAUUACGACGG	-2.5 ± 0.37	-2.67 ± 0.48
GAAGAGCAAUAUUACGAGAC	-3.95 ± 0.26	-1.4 ± 0.25
GAAGAGCAAUAUUACGAUGG	-3.18 ± 0.17	-2.1 ± 0.23
GAAGAGCAAUAUUACGCAUG	-3.45 ± 0.47	-2.36 ± 0.33
GAAGAGCAAUAUUACGCCCA	-3.65 ± 0.48	-0.321 ± 0.31
GAAGAGCAAUAUUACGGCAA	–	-2.36 ± 0.49
GAAGAGCAAUAUUACGGCCA	-1.59 ± 0.3	-1.27 ± 0.5
GAAGAGCAAUAUUACGGCGA	-1.57 ± 0.2	-0.931 ± 0.25
GAAGAGCAAUAUUACGGUCA	-2.72 ± 0.34	-2.05 ± 0.23
GAAGAGCAAUAUUACGGUCC	-2.17 ± 0.26	-2.32 ± 0.33
GAAGAGCAAUAUUACGGUCG	-3.24 ± 0.13	-1.61 ± 0.15
GAAGAGCAAUAUUACGGUGU	-3.49 ± 0.14	-3.02 ± 0.23

Sequence	self-splicing fitness (ln) (30 °C)	self-splicing fitness (ln) (37 °C)
GAAGAGCAAUAUUACGGUUA	-1.49 ± 0.19	-1.27 ± 0.23
GAAGAGCAAUAUUACGUAGU	-2.69 ± 0.13	-2.88 ± 0.2
GAAGAGCAAUAUUACGUCAU	-3.91 ± 0.48	-2.13 ± 0.38
GAAGAGCAAUAUUACGUCUC	-2.37 ± 0.37	-1.19 ± 0.49
GAAGAGCAAUAUUACGUGAC	-3.21 ± 0.22	-1.72 ± 0.18
GAAGAGCAAUAUUACGUUUU	-4.09 ± 0.23	-2.38 ± 0.21
GAAUAGCAAUAUUACGAAGG	-2.77 ± 0.27	–
GAAUAGCAAUAUUACGCCCG	-1.28 ± 0.18	-0.828 ± 0.23
GAAUAGCAAUAUUACGCCUU	-0.0381 ± 0.072	0.111 ± 0.081
GAAUAGCAAUAUUACGCGCA	-0.334 ± 0.066	-0.494 ± 0.074
GAAUAGCAAUAUUACGCGUC	-1.98 ± 0.23	0.15 ± 0.32
GAAUAGCAAUAUUACGCUAA	-2.59 ± 0.25	-1.05 ± 0.25
GAAUAGCAAUAUUACGCUUU	-2.02 ± 0.15	-1.35 ± 0.16
GAAUAGCAAUAUUACGGAGG	-4.24 ± 0.3	-2.27 ± 0.22
GAAUAGCAAUAUUACGGUCU	-0.677 ± 0.084	-0.0473 ± 0.097
GAAUAGCAAUAUUACGGUUA	-0.656 ± 0.11	-0.631 ± 0.091
GAAUAGCAAUAUUACGUCUC	-0.581 ± 0.11	-0.137 ± 0.16
GAAUAGCAAUAUUACGUGCC	-0.897 ± 0.12	-0.104 ± 0.15
GAAUAGCAAUAUUACGUGUU	-2.18 ± 0.12	-0.873 ± 0.1
GAAUAGCAAUAUUACGUUGG	-3.3 ± 0.16	-2.77 ± 0.2
GAAUAGCAAUAUUACGUUUA	-1.79 ± 0.15	-1.01 ± 0.15
GACAAGCAAUAUUACGAAAG	-3.82 ± 0.23	-3.18 ± 0.24
GACAAGCAAUAUUACGACGU	-0.139 ± 0.065	-0.167 ± 0.074
GACAAGCAAUAUUACGACUA	-0.408 ± 0.058	0.117 ± 0.066

Sequence	self-splicing fitness (ln) (30 °C)	self-splicing fitness (ln) (37 °C)
GACAAGCAAUAUUACGAGAA	-1.77 ± 0.3	-2.19 ± 0.22
GACAAGCAAUAUUACGAGGU	-3.51 ± 0.15	-2.92 ± 0.16
GACAAGCAAUAUUACGAGUG	-1.55 ± 0.056	-0.456 ± 0.073
GACAAGCAAUAUUACGAUCG	-0.776 ± 0.086	-0.39 ± 0.11
GACAAGCAAUAUUACGCAAG	-2.27 ± 0.091	-1.75 ± 0.12
GACAAGCAAUAUUACGCCUA	-0.964 ± 0.093	-0.0625 ± 0.088
GACAAGCAAUAUUACGCCUG	-1.3 ± 0.093	-0.0185 ± 0.1
GACAAGCAAUAUUACGCUCU	-2.38 ± 0.13	-1.08 ± 0.12
GACAAGCAAUAUUACGCUUC	-3.75 ± 0.26	-2.25 ± 0.25
GACAAGCAAUAUUACGGCUG	-0.552 ± 0.082	-0.635 ± 0.11
GACAAGCAAUAUUACGGGUC	-3.73 ± 0.19	-3.15 ± 0.28
GACAAGCAAUAUUACGGGUU	-3.38 ± 0.14	-3.46 ± 0.17
GACAAGCAAUAUUACGGUCG	-1.22 ± 0.076	-0.0208 ± 0.09
GACAAGCAAUAUUACGGUUA	-0.281 ± 0.079	-0.186 ± 0.077
GACAAGCAAUAUUACGGUUC	-3.57 ± 0.16	-2.81 ± 0.32
GACAAGCAAUAUUACGUAAU	-2.61 ± 0.088	-1.16 ± 0.081
GACAAGCAAUAUUACGUAUA	-1.76 ± 0.15	-1.79 ± 0.13
GACAAGCAAUAUUACGUGGG	-4.48 ± 0.2	-1.87 ± 0.12
GACAAGCAAUAUUACGUGUU	-3.4 ± 0.12	-2.21 ± 0.12
GACCAGCAAUAUUACGAAUG	-1.82 ± 0.071	-1.49 ± 0.088
GACCAGCAAUAUUACGACAU	-0.634 ± 0.011	-0.0858 ± 0.032
GACCAGCAAUAUUACGACGC	0.184 ± 0.074	-0.35 ± 0.085
GACCAGCAAUAUUACGAUCA	-1.38 ± 0.1	-1.1 ± 0.12
GACCAGCAAUAUUACGAUGA	-0.717 ± 0.071	-0.509 ± 0.085

From the supplement of paper PMC7877785
